# Source: article PMC7367873, “Dissecting the sequence determinants for dephosphorylation by the catalytic subunits of phosphatases PP1 and PP2A” (Nature Communications, 2020)
# How the values were obtained:
# [1] = system: GFP-14-3-3β and its binding proteins; assay: GFP-14-3-3β co-IP with LC-MS/MS label-free quantification, untreated versus PP1c-treated; design: species or system human; conditions: 3 replicates each
# [2] = system: GFP-14-3-3β; assay: GFP-14-3-3β co-IP with LC-MS/MS, untreated GFP-14-3-3β versus GFP control (14-3-3 interactome); format: binding, human; conditions: 3 replicates each
# [3] = PP1 vs untreated, LFQ intensities
# [4] = untreated vs GFP, LFQ intensities
Molecule,"Difference (log2), PP1 vs untreated [1, 3] [log2]","Difference (log2), untreated vs GFP [2, 4] [log2]","Difference (log2), PP1 vs untreated ([1]; log2 difference, pairwise comparison PP1 vs untreated, label-free quantification)","Difference (log2), untreated vs GFP ([2]; log2 difference, pairwise comparison untreated vs GFP, label-free quantification)"
"STT3A (protein, UniProt P46977 1-705, looked up) Dolichyl-diphosphooligosacchar …: MTKFGFLRLSYEKQDTLLKLLILSMAAVLSFSTRLFAVLRFESVIHEFDPYFNYRTTRFLAEEGFYKFHNWFDDRAWYPLGRIIGGTIYPGLMITSAAIYHVLHFFHITIDIRNVCVFLAPLFSSFTTIVTYHLTKELKDAGAGLLAAAMIAVVPGYISRSVAGSYDNEGIAIFCMLLTYYMWIKAVKTGSICWAAKCALAYFYMVSSWGGYVFLINLIPLHVLVLMLTGRFSHRIYVAYCTVYCLGTILSMQISFVGFQPVLSSEHMAAFGVFGLCQIHAFVDYLRSKLNPQQFEVLFRSVISLVGFVLLTVGALLMLTGKISPWTGRFYSLLDPSYAKNNIPIIASVSEHQPTTWSSYYFDLQLLVFMFPVGLYYCFSNLSDARIFIIMYGVTSMYFSAVMVRLMLVLAPVMCILSGIGVSQVLSTYMKNLDISRPDKKSKKQQDSTYPIKNEVASGMILVMAFFLITYTFHSTWVTSEAYSSPSIVLSARGGDGSRIIFDDFREAYYWLRHNTPEDAKVMSWWDYGYQITAMANRTILVDNNTWNNTHISRVGQAMASTEEKAYEIMRELDVSYVLVIFGGLTGYSSDDINKFLWMVRIGGSTDTGKHIKENDYYTPTGEFRVDREGSPVLLNCLMYKMCYYRFGQVYTEAKRPPGFDRVRNAEIGNKDFELDVLEEAYTTEHWLVRIYKVKDLDNRGLSRT",0.5123,0.4915,,
"DDX5 (protein, UniProt P17844 1-614, looked up) Probable ATP-dependent RNA …: MSGYSSDRDRGRDRGFGAPRFGGSRAGPLSGKKFGNPGEKLVKKKWNLDELPKFEKNFYQEHPDLARRTAQEVETYRRSKEITVRGHNCPKPVLNFYEANFPANVMDVIARQNFTEPTAIQAQGWPVALSGLDMVGVAQTGSGKTLSYLLPAIVHINHQPFLERGDGPICLVLAPTRELAQQVQQVAAEYCRACRLKSTCIYGGAPKGPQIRDLERGVEICIATPGRLIDFLECGKTNLRRTTYLVLDEADRMLDMGFEPQIRKIVDQIRPDRQTLMWSATWPKEVRQLAEDFLKDYIHINIGALELSANHNILQIVDVCHDVEKDEKLIRLMEEIMSEKENKTIVFVETKRRCDELTRKMRRDGWPAMGIHGDKSQQERDWVLNEFKHGKAPILIATDVASRGLDVEDVKFVINYDYPNSSEDYIHRIGRTARSTKTGTAYTFFTPNNIKQVSDLISVLREANQAINPKLLQLVEDRGSGRSRGRGGMKDDRRDRYSAGKRGGFNTFRDRENYDRGYSSLLKRDFGAKTQNGVYSAANYTNGSFGSNFVSAGIQTSFRTGNPTGTYQNGYDSTQQYGSNVPNMHNGMNQQAYAYPATAAAPMIGYPMPTGYSQ",0.5082,0.1802,,
"FUBP3 (protein, UniProt Q96I24 2-572, looked up) Far upstream element-binding …: AELVQGQSAPVGMKAEGFVDALHRVRQIAAKIDSIPHLNNSTPLVDPSVYGYGVQKRPLDDGVGNQLGALVHQRTVITEEFKVPDKMVGFIIGRGGEQISRIQAESGCKIQIASESSGIPERPCVLTGTPESIEQAKRLLGQIVDRCRNGPGFHNDIDSNSTIQEILIPASKVGLVIGRGGETIKQLQERTGVKMVMIQDGPLPTGADKPLRITGDAFKVQQAREMVLEIIREKDQADFRGVRGDFNSRMGGGSIEVSVPRFAVGIVIGRNGEMIKKIQNDAGVRIQFKPDDGISPERAAQVMGPPDRCQHAAHIISELILTAQERDGFGGLAAARGRGRGRGDWSVGAPGGVQEITYTVPADKCGLVIGKGGENIKSINQQSGAHVELQRNPPPNSDPNLRRFTIRGVPQQIEVARQLIDEKVGGTNLGAPGAFGQSPFSQPPAPPHQNTFPPRSSGCFPNMAAKVNGNPHSTPVSGPPAFLTQGWGSTYQAWQQPTQQVPSQQSQPQSSQPNYSKAWEDYYKKQSHAASAAPQASSPPDYTMAWAEYYRQQVAFYGQTLGQAQAHSQEQ",0.5248,0.3039,,
"RBM39 (protein, UniProt Q14498 2-530, looked up) RNA-binding protein 39: ADDIDIEAMLEAPYKKDENKLSSANGHEERSKKRKKSKSRSRSHERKRSKSKERKRSRDRERKKSKSRERKRSRSKERRRSRSRSRDRRFRGRYRSPYSGPKFNSAIRGKIGLPHSIKLSRRRSRSKSPFRKDKSPVREPIDNLTPEERDARTVFCMQLAARIRPRDLEEFFSTVGKVRDVRMISDRNSRRSKGIAYVEFVDVSSVPLAIGLTGQRVLGVPIIVQASQAEKNRAAAMANNLQKGSAGPMRLYVGSLHFNITEDMLRGIFEPFGRIESIQLMMDSETGRSKGYGFITFSDSECAKKALEQLNGFELAGRPMKVGHVTERTDASSASSFLDSDELERTGIDLGTTGRLQLMARLAEGTGLQIPPAAQQALQMSGSLAFGAVAEFSFVIDLQTRLSQQTEASALAAAASVQPLATQCFQLSNMFNPQTEEEVGWDTEIKDDVIEECNKHGGVIHIYVDKNSAQGNVYVKCPSIAAAIAAVNALHGRWFAGKMITAAYVPLPTYHNLFPDSMTATQLLVPSRR",0.4791,0.5608,,
"PKP2 (protein, UniProt Q99959 1-881, looked up) Plakophilin-2: MAAPGAPAEYGYIRTVLGQQILGQLDSSSLALPSEAKLKLAGSSGRGGQTVKSLRIQEQVQQTLARKGRSSVGNGNLHRTSSVPEYVYNLHLVENDFVGGRSPVPKTYDMLKAGTTATYEGRWGRGTAQYSSQKSVEERSLRHPLRRLEISPDSSPERAHYTHSDYQYSQRSQAGHTLHHQESRRAALLVPPRYARSEIVGVSRAGTTSRQRHFDTYHRQYQHGSVSDTVFDSIPANPALLTYPRPGTSRSMGNLLEKENYLTAGLTVGQVRPLVPLQPVTQNRASRSSWHQSSFHSTRTLREAGPSVAVDSSGRRAHLTVGQAAAGGSGNLLTERSTFTDSQLGNADMEMTLERAVSMLEADHMLPSRISAAATFIQHECFQKSEARKRVNQLRGILKLLQLLKVQNEDVQRAVCGALRNLVFEDNDNKLEVAELNGVPRLLQVLKQTRDLETKKQITDHTVNLRSRNGWPGAVAHACNPSTLGGQGGRITRSGVRDQPDQHGLLWNLSSNDKLKNLMITEALLTLTENIIIPFSGWPEGDYPKANGLLDFDIFYNVTGCLRNMSSAGADGRKAMRRCDGLIDSLVHYVRGTIADYQPDDKATENCVCILHNLSYQLEAELPEKYSQNIYIQNRNIQTDNNKSIGCFGSRSRKVKEQYQDVPMPEEKSNPKGVEWLWHSIVIRMYLSLIAKSVRNYTQEASLGALQNLTAGSGPMPTSVAQTVVQKESGLQHTRKMLHVGDPSVKKTAISLLRNLSRNLSLQNEIAKETLPDLVSIIPDTVPSTDLLIETTASACYTLNNIIQNSYQNARDLLNTGGIQKIMAISAGDAYASNKASKAASVLLYSLWAHTELHHAYKKAQFKKTDFVNSRTAKAYHSLKD",0.4916,1.704,,
"OASL (protein, UniProt Q15646 2-514, looked up) 2'-5'-oligoadenylate …: ALMQELYSTPASRLDSFVAQWLQPHREWKEEVLDAVRTVEEFLRQEHFQGKRGLDQDVRVLKVVKVGSFGNGTVLRSTREVELVAFLSCFHSFQEAAKHHKDVLRLIWKTMWQSQDLLDLGLEDLRMEQRVPDALVFTIQTRGTAEPITVTIVPAYRALGPSLPNSQPPPEVYVSLIKACGGPGNFCPSFSELQRNFVKHRPTKLKSLLRLVKHWYQQYVKARSPRANLPPLYALELLTIYAWEMGTEEDENFMLDEGFTTVMDLLLEYEVICIYWTKYYTLHNAIIEDCVRKQLKKERPIILDPADPTLNVAEGYRWDIVAQRASQCLKQDCCYDNRENPISSWNVKRARDIHLTVEQRGYPDFNLIVNPYEPIRKVKEKIRRTRGYSGLQRLSFQVPGSERQLLSSRCSLAKYGIFSHTHIYLLETIPSEIQVFVKNPDGGSYAYAINPNSFILGLKQQIEDQQGLPKKQQQLEFQGQVLQDWLGLGIYGIQDSDTLILSKKKGEALFPAS",,,2.113,-1.1672
"C14orf166 (protein, UniProt Q9Y224 1-244, looked up) RNA transcription, …: MFRRKLTALDYHNPAGFNCKDETEFRNFIVWLEDQKIRHYKIEDRGNLRNIHSSDWPKFFEKYLRDVNCPFKIQDRQEAIDWLLGLAVRLEYGDNAEKYKDLVPDNSKTADNATKNAEPLINLDVNNPDFKAGVMALANLLQIQRHDDYLVMLKAIRILVQERLTQDAVAKANQTKEGLPVALDKHILGFDTGDAVLNEAAQILRLLHIEELRELQTKINEAIVAVQAIIADPKTDHRLGKVGR",0.4707,1.488,,
"SLC25A5 (protein, UniProt P05141 1-298, looked up) ADP/ATP translocase 2: MTDAAVSFAKDFLAGGVAAAISKTAVAPIERVKLLLQVQHASKQITADKQYKGIIDCVVRIPKEQGVLSFWRGNLANVIRYFPTQALNFAFKDKYKQIFLGGVDKRTQFWLYFAGNLASGGAAGATSLCFVYPLDFARTRLAADVGKAGAEREFRGLGDCLVKIYKSDGIKGLYQGFNVSVQGIIIYRAAYFGIYDTAKGMLPDPKNTHIVISWMIAQTVTAVAGLTSYPFDTVRRRMMMQSGRKGTDIMYTGTLDCWRKIARDEGGKAFFKGAWSNVLRGMGGAFVLVLYDEIKKYT",0.4677,0.2489,,
"ATP5C1 (protein, UniProt P36542 26-298, looked up) ATP synthase F(1) complex …: ATLKDITRRLKSIKNIQKITKSMKMVAAAKYARAERELKPARIYGLGSLALYEKADIKGPEDKKKHLLIGVSSDRGLCGAIHSSIAKQMKSEVATLTAAGKEVMLVGIGDKIRGILYRTHSDQFLVAFKEVGRKPPTFGDASVIALELLNSGYEFDEGSIIFNKFRSVISYKTEEKPIFSLNTVASADSMSIYDDIDADVLQNYQEYNLANIIYYSLKESTTSEQSARMTAMDNASKNASEMIDKLTLTFNRTRQAVITKELIEIISGAAALD",0.4773,1.174,,
